Measurements as given in article doi:10.1101/2024.06.13.598777, “Acetylation of the yeast Hsp40 chaperone protein Ydj1 fine-tunes proteostasis and translational fidelity” (bioRxiv, 2024).
Positions count from the first letter of the chain named. In names and notes the source's numbering stands. One block for each binder: values may come before it.

Target: T1, Ssa1 (purified) (yeast, UniProt P10591 1-642)
T1 construct: Ssa1, yeast Hsp70; also called Hsp70; source: isolated as previously described [51]
Experiment: BLI; Ydj1-biotin (5 ug/ml) on streptavidin biosensors, Ssa1 1 uM in solution, 23 °C, 25 mM Hepes pH 7.5, 50 mM KCl, 2 mM DTT, 5 mM MgCl2, 0.5 mM ATP, 0.02% Tween-20; Octet R4; reference sensor subtracted
Settings: both partners purified

T1 sequence (P10591 whole entry): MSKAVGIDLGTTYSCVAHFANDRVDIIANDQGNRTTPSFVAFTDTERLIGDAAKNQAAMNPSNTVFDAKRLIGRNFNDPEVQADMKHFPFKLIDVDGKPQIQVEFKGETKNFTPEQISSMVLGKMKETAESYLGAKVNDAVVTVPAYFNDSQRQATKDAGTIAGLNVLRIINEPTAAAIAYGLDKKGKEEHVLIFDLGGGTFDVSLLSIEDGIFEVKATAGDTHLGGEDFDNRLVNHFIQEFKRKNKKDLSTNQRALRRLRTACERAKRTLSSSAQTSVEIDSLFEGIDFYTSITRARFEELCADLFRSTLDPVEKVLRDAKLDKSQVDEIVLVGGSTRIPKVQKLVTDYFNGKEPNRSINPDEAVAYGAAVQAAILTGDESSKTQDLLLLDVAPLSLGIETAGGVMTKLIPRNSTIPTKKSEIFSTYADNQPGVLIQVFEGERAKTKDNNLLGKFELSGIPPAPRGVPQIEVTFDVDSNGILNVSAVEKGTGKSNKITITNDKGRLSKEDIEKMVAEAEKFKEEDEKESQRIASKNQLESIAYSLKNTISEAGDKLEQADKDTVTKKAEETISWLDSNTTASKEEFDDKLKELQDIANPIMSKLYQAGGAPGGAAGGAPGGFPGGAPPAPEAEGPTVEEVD

B3: His-tagged Ydj1 K23R, biotinylated (natural protein, yeast, UniProt P25491 1-409, looked up)
chain: MVKETKFYDILGVPVTATDVEIRKAYRKCALKYHPDKNPSEEAAEKFKEASAAYEILSDPEKRDIYDQFGEDGLSGAGGAGGFPGGGFGFGDDIFSQFFGAGGAQRPRGPQRGKDIKHEISASLEELYKGRTAKLALNKQILCKECEGRGGKKGAVKKCTSCNGQGIKFVTRQMGPMIQRFQTECDVCHGTGDIIDPKDRCKSCNGKKVENERKILEVHVEPGMKDGQRIVFKGEADQAPDVIPGDVVFIVSERPHKSFKRDGDDLVYEAEIDLLTAIAGGEFALEHVSGDWLKVGIVPGEVIAPGMRKVIEGKGMPIPKYGGYGNLIIKFTIKFPENHFTSEENLKKLEEILPPRIVPAIPKKATVDECVLADFDPAKYNRTRASRGGANYDSDEEEQGGEGVQCASQ
modifications: biotin (labeled with a 1.5-fold excess of NHS-PEG4-Biotin)
notes: Same construct as m5 with the mutation; source: E. coli Rosetta (DE3), purified (Ni-sepharose, Superdex 200)
- binding result: binds

B4: His-tagged Ydj1 K23Q, biotinylated (natural protein, yeast, UniProt P25491 1-409, looked up)
chain: B3 chain with R23Q
modifications: biotin (labeled with a 1.5-fold excess of NHS-PEG4-Biotin)
notes: Ydj1, yeast Hsp40, acetyl-mimic mutant; Same construct as m5 with the mutation; source: E. coli Rosetta (DE3), purified (Ni-sepharose, Superdex 200)
- binding result: binds

More lines, now with the values ahead:

- binding result: binds
B1: His-tagged Ydj1 wild-type, biotinylated (natural protein, yeast, UniProt P25491 1-409, looked up)
chain: B3 chain with R23K
modifications: biotin (labeled with a 1.5-fold excess of NHS-PEG4-Biotin)
notes: Ydj1, yeast Hsp40; YDJ1 gene PCR amplified from yeast genomic DNA into pRSETA; A fragment lacking the J-domain (delta J) co-purifies with the recombinant protein; also called Ydj1-biotin; HIS-Ydj1; source: E. coli Rosetta (DE3), purified (Ni-sepharose, Superdex 200)

- binding result: binds
B2: His-tagged Ydj1 K37R, biotinylated (natural protein, yeast, UniProt P25491 1-409, looked up)
chain: B3 chain with R23K, K37R
modifications: biotin (labeled with a 1.5-fold excess of NHS-PEG4-Biotin)
notes: as for B3
